Test results: paper PMC9054839 (2022)

B1: C-terminally ypet-tagged full-length talin WT [mouse] / paxillin (endogenous, fibroblasts) [mouse (endogenous in talin^1/2dko fibroblasts)] (parent complex)
chain 1: MVALSLKISIGNVVKTMQFEPSTMVYDACRMIRERIPEALAGPPNDFGLFLSDDDPKKGIWLEAGKALDYYMLRNGDTMEYRKKQRPLKIRMLDGTVKTIMVDDSKTVTDMLMTICARIGITNHDEYSLVRELMEEKKDEGTGTLRKDKTLLRDEKKMEKLKQKLHTDDELNWLDHGRTLREQGVEEHETLLLRRKFFYSDQNVDSRDPVQLNLLYVQARDDILNGSHPVSFDKACEFAGFQCQIQFGPHNEQKHKAGFLDLKDFLPKEYVKQKGERKIFQAHKNCGQMSEIEAKVRYVKLARSLKTYGVSFFLVKEKMKGKNKLVPRLLGITKECVMRVDEKTKEVIQEWSLTNIKRWAASPKSFTLDFGDYQDGYYSVQTTEGEQIAQLIAGYIDIILKKKKSKDHFGLEGDEESTMLEDSVSPKKSTVLQQQYNRVGKVEHGSVALPAIMRSGASGPENFQVGSMPPAQQQITSGQMHRGHMPPLTSAQQALTGTINSSMQAVQAAQATLDDFETLPPLGQDAASKAWRKNKMDESKHEIHSQVDAITAGTASVVNLTAGDPAETDYTAVGCAVTTISSNLTEMSRGVKLLAALLEDEGGNGRPLLQAAKGLAGAVSELLRSAQPASAEPRQNLLQAAGNVGQASGELLQQIGESDTDPHFQDVLMQLAKAVASAAAALVLKAKSVAQRTEDSGLQTQVIAAATQCALSTSQLVACTKVVAPTISSPVCQEQLVEAGRLVAKAVEGCVSASQAATEDGQLLRGVGAAATAVTQALNELLQHVKAHATGAGPAGRYDQATDTILTVTENIFSSMGDAGEMVRQARILAQATSDLVNAIKADAEGESDLENSRKLLSAAKILADATAKMVEAAKGAAAHPDSEEQQQRLREAAEGLRMATNAAAQNAIKKKLVQRLEHAAKQAAASATQTIAAAQHAASAPKASAGPQPLLVQSCKAVAEQIPLLVQGVRGSQAQPDSPSAQLALIAASQSFLQPGGKMVAAAKASVPTIQDQASAMQLSQCAKNLGTALAELRTAAQKAQEACGPLEMDSALSVVQNLEKDLQEIKAAARDGKLKPLPGETMEKCTQDLGNSTKAVSSAIAKLLGEIAQGNENYAGIAARDVAGGLRSLAQAARGVAALTSDPAVQAIVLDTASDVLDKASSLIEEAKKASGHPGDPESQQRLAQVAKAVTQALNRCVSCLPGQRDVDNALRAVGDASKRLLSDSLPPSTGTFQEAQSRLNEAAAGLNQAATELVQASRGTPQDLARASGRFGQDFSTFLEAGVEMAGQAPSQEDRAQVVSNLKGISMSSSKLLLAAKALSTDPASPNLKSQLAAAARAVTDSINQLITMCTQQAPGQKECDNALRQLETVRELLENPVQPINDMSYFGCLDSVMENSKVLGEAMTGISQNAKNGNLPEFGDAIATASKALCGFTEAAAQAAYLVGVSDPNSQAGQQGLVEPTQFARANQAIQMACQSLGEPGCTQAQVLSAATIVAKHTSALCNSCRLASARTANPTAKRQFVQSAKEVANSTANLVKTIKALDGDFTEENRAQCRAATAPLLEAVDNLSAFASNPEFSSVPAQISPEGRAAMEPIVISAKTMLESAGGLIQTARALAVNPRDPPRWSVLAGHSRTVSDSIKKLITSMRDKAPGQLECETAIAALNSCLRDLDQASLAAVSQQLAPREGISQEALHTQMLTAVQEISHLIEPLASAARAEASQLGHKVSQMAQYFEPLTLAAVGAASKTLSHPQQMALLDQTKTLAESALQLLYTAKEAGGNPKQAAHTQEALEEAVQMMTEAVEDLTTTLNEAASAAGVVGGMVDSITQAINQLDEGPMGDPEGSFVDYQTTMVRTAKAIAVTVQEMVTKSNTSPEELGPLANQLTSDYGRLASQAKPAAVAAENEEIGAHIKHRVQELGHGCSALVTKAGALQCSPSDVYTKKELIECARRVSEKVSHVLAALQAGNRGTQACITAASAVSGIIADLDTTIMFATAGTLNREGAETFADHREGILKTAKVLVEDTKVLVQNAAGSQEKLAQAAQSSVATITRLADVVKLGAASLGAEDPETQVVLINAVKDVAKALGDLISATKAAAGKVGDDPAVWQLKNSAKVMVTNVTSLLKTVKAVEDEATKGTRALEATTEHIRQELAVFCSPEPPAKTSTPEDFIRMTKGITMATAKAVAAGNSCRQEDVIATANLSRRAIADMLRACKEAAFHPEVAPDVRLRALHYGRECANGYLELLDHVLLTLQKPNPDLKQQLTGHSKRVAGSVTELIQAAEAMKGTEWVDPEDPTVIAENELLGAAAAIEAAAKKLEQLKPRAKPKEADESLNFEEQILEAAKSIAAATSALVKAASAAQRELVAQGKVGAIPANALDDGQWSQGLISAARMVAAATNNLCEAANAAVQGHASQEKLISSAKQVAASTAQLLVACKVKADQDSEAMKRLQAAGNAVKRASDNLVKAAQKAAAFEDQENETVVVKEKMVGGIAQIIAAQEEMLRKERELEEARKKLAQIRQQQYKFLPSELRDEH
chain 2: not shown

Variants of: B1
Experiment: anti-GFP immunoprecipitation, western blot quantification; talin1/2dKO fibroblasts, N = 3; parent: 1; read off a plot

ratio to parent | Variant
~0.69 | chain 1 T2126E, chain 1 K2133E
~0.28 | chain 1 A680E, chain 1 K687E, chain 1 T2126E, chain 1 K2133E
~0.44 | chain 1 A680E, chain 1 K687E
